# Reference: US20160272698A1
# Ends that are not written are not given here.
# Columns and labels:
# [1] = molecular target: AVR1674 (LFG2 3F3:3H9:2C10:4B10); test: biolayer interferometry (Octet), biotinylated peptide on streptavidin tips, LFG2:4B10 mAb in solution, 1:1 Langmuir fit
# [2] = molecular target: AVR1674 (LFG2 3F3:3H9:2C10:4B10); test: biolayer interferometry (Octet), biotinylated peptide on streptavidin tips, LFG2:4B10 mAb at 500 nM
# [3] = molecular target: AVR1674 (LFG2 3F3:3H9:2C10:4B10); test: biolayer interferometry (Octet), follow-up experiment, 4-point titration of mAb LFG2 against the peptide
# [4] = molecular target: Bacillus anthracis lethal factor (recombinant LF) (Bacillus anthracis) (UniProt P15917); test: immunoblot of denatured recombinant LF
# Sequence of UniProt P15917 (P15917 34-809 limits assumed): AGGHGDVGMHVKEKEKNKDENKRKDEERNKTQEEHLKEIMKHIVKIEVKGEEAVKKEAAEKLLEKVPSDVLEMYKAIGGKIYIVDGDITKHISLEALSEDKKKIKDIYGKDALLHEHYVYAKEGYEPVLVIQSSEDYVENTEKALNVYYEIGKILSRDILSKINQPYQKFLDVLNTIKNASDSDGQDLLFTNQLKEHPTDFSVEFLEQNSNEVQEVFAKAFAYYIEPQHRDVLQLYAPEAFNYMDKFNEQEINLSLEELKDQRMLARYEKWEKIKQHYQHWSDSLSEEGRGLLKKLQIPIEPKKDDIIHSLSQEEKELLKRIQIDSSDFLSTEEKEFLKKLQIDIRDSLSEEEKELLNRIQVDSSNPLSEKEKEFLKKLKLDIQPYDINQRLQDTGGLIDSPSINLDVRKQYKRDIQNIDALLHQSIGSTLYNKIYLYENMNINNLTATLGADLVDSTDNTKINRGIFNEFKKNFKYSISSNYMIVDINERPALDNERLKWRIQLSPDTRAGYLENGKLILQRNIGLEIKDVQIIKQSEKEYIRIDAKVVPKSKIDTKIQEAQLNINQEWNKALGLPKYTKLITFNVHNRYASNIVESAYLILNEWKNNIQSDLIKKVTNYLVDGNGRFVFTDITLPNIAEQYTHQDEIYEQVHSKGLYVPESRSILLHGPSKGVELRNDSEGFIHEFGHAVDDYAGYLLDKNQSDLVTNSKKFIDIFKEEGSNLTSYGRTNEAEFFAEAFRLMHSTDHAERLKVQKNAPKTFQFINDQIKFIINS
Binder,Kd [1],Response R [2],Kd [3],amount of LF detected by immunoblot [4]
TFKDAIGGGSK-biotin […-biotin (SEQ ID NO: 30)],24.5 nM,1.01 nm,,
TFKDEIGGGSK-biotin […-biotin (SEQ ID NO: 25)],13.9 nM,4.84 nm,9.97 nM,
"AVR1674 (LFG2 3F3:3H9:2C10:4B10) (antibody, V domains shown) VH: EVQLQVSGAELVKPGASVRLSCKASGYTFTSYYIYWVKQRPGQGLEWIGDINPSDGDTDFNEKFKSKATLTVDKSSSTAYMQLSSLTSEDSAVYYCTRSRGGFAYWGQGTLVTVSA VL: SHGDQASISSRSSQSIVHSNGNTYLEWYLQKPAQSPKLLIFKVSNRFSGVPDRFSRSGSGTDFTLKISRVEAEDLGIYYCSQGSHVPWTFGGGTKL",,,,< 30 ng
THKDEIGGGSK-biotin […-biotin (SEQ ID NO: 36)],60 nM,2.37 nm,,
TFKDEAGGGSK-biotin […-biotin (SEQ ID NO: 31)],16.4 nM,5.29 nm,,
TFQDEIGGGSK-biotin […-biotin (SEQ ID NO: 37)],34.4 nM,1.34 nm,,
